Assay: soluble on expression in E. coli; label from the status in PepcDB or PDB records

Sequence	soluble on expression in E. coli
MKYVDGFVVAVPADKKDAYREMAAKAAPLFKEFGALRIVECWASDVPDGKVTDFRMAVKAEENEEVVFSWIEYPSKEVRDAANQKMMSDPRMKEFGESMPFDGKRMIYGGFESIIDE	soluble
MNYDAKQPPANLADSIQQKETVQALYDLLDKNMADFDASLAGMDKAETADLKEVSDTREIYDFIRYHYGEFGQREAELLLRMENPLNFIVENWPCHNLETLAMNYLADKTIKEPNKKEMPQSGHDTKDAEKPSILKQIKTNQGQIKANRQETRQQSITAERPRDGEAR	not soluble
MGSDKIHHHHHHMQDKVIPSLSAAIAKEVERRTQGVDWCETEIAGLDFYRQSAPTSCSVCVVEPSIALVVQGAKAMTLGEQTFRYDPSRFLITSLDLPAKMQVLEASEEAPYLGVVIKLDLAVMSDLMLQTPLTMQKETASDQGMILGATTPKLLGAISRLVNLLDEPESIAVLAPLIKREIYWRVLMSEQGARLRQIVSAGSHGLRIARTIEWLKVHYDQHLSVDSLADMARMSKSTFHHHFRRLTSMSPLQYQKRLRLLEARRLMLGEDIDASAAAYRVGYESPSQFSREYSRLFGASPKKDVATQWQ	not soluble
MLVPLYDVMCRALGINGKTAGSAYSGEQQVDVGREVKVQFMTSNNIDMVWEFRSAGDQLVVHPGAVNQMVFYARNPSDKPMTAQAIPSIAPAEAAAYFHKTECFCFTQQVLQPGESIEMPVRFIVDRDLPKDVRHVTLAYTLFDI	soluble
SATSVLCCLRCCRDGGTGHIPLKEMPAVQLDTQHMGIWGIGVATQKVNLNQIPLGRDMHSLVMRNDGALYHNNEEKNRLPANSLPQEGDVVGITYDHVELNVYLNGKNMHCPASGIRGTVYPVVYDDDSAILDCQFSEFYHTPPPGFEKILFEQQIF	soluble
MKLPGPDHPISITANPNGVRISADGKVIAETRRALTLQEASYPPVQYIPREDADMRLLEKTARVTHCPYKGDASYFSIVAGGEPQANAVWSYENPFPAMAEIAGYLAFYPQKVQTEEFKP	not soluble
MSLKEFLIKKIEFTLFEVCIPDIGADPSGFGVWYEPGPGTPQKRFAVRIFTDEGPVGVYVPPRSRATVIMPAAIALAHFLIRKPALERERHYQTMRRITKHVGEAGIGALDIALWDLGGKISGQPISQMLGGHRRKLPSYASTIPGDEHPKGLSSSEAYADFAQQCLEIGYKGYKMHGWKEGNPQRESEMIRAVARQVGGSMDIMYDAACHLKTLTDAIRVGRVCDEHELLWYEDPYADGGLTIRGHRALKEKVRTPVMIGEHVRNPEIHTELLVSGATDFGRVDPDYDGGITGSYKAAMAAESLGYDVEVHSCGPAMRQLMAALSISNYYEINLVHPIGPNPWQLPVYLNGYSDELDCIDREGMVDVSQSPGLGVDYDWEWIEKNSLERIIVDKAKEGHHHHHH	soluble
MGSDKIHHHHHHCGGGTERKGLEALVAEYKKLNPDVDFEIIDISYSSYMQKISLAVMSGDVPDLMTITYPFAPELRKYLIDLDPYIEKYLGITPKEYEDAFYNVVKPYIKDENGKIKYVPLHFTVQGLWVNVDYFEKAGIPFPPLGGREEPWTWEEFVEVLRKVKEANNLPYAMSMQYSAERIANYLAIRGAKVLDENLNLVLDKDPKAIKALEDFVNLFKENLCVPAEWVSGQSADNDFYGGVTAVYWAGSWETLDALSVEGKRFLPAYLPKDEYCFGVEGGRFFGAFKTGDKKKEEEAAKFALWAGWKGKGYDIYLKTTLHLSAYKDHKVDYGVPIMESVQKVFGYLAANAPEWIVTVRANPVWSRLYDPLRKQISLVIAGQQDLQTALKNIRAEYERIVEELGIK	not soluble
MDFKAKLLAEMAKKRKAVSGMEVKEGNAKFVKGADLEMKRNQEYERKQQEIASKKRKVDDEILQESSSRTKPAPVENESEIDEKTPMSEIQTRLRQRNHPIMLFGETDIDVRKRLHQLELAQPDLNEGWENELQTAMKVIGKEMDKAVVEGTADSATRHDIALPQGYEEDNWKNIEHNSTLLSVDDDLKRDCDIILSICRYILARWAKDLNDRPLDVKKTAQGMHEAAHHKQTMMHLKSLMTSMERYNCNNDIRHHLAKICRLLVIDRNYLEANNAYMEMAIGNAPWPVGVTRSGIHQRPGSAKSYVSNIAHVLNDETQRKYIQAFKRLMTKMQEYFPTDPSKSVEFVKKAV	not soluble
MGHHHHHHSHMEPGEELEEEGSPGGREDGFTAEHLAAEAMAADMDPWLVFDARTTPATELDAWLAKYPPSQVTRYGDPGSPNSEPVGWIAVYGQGYSPNSGDVQGLQAAWEALQTSGRPITPGTLRQLAITHHVLSGKWLMHLAPGFKLDHAWAGIARAVVEGRLQVAKVSPRAKEGGRQVICVYTDDFTDRLGVLEADSAIRAAGIKCLLTYKPDVYTYLGIYRANRWHLCPTLYESRFQLGGSARGSRVLDRANNVELT	not soluble
MDFSLTEEQELLLASIRELITTNFPEEYFRTCDQNGTYPREFMRALADNGISMLGVPEEFGGIPADYVTQMLALMEVSKCGAPAFLITNGQCIHSMRRFGSAEQLRKTAESTLETGDPAYALALTEPGAGSDNNSATTTYTRKNGKVYINGQKTFITGAKEYPYMLVLARDPQPKDPKKAFTLWWVDSSKPGIKINPLHKIGWHMLSTCEVYLDNVEVEESDMVGEEGMGFLNVMYNFEMERLINAARSTGFAECAFEDAARYANQRIAFGKPIGHNQMIQEKLALMAIKIDNMRNMVLKVAWQADQHQSLRTSAALAKLYCARTAMEVIDDAIQIMGGLGYTDEARVSRFWRDVRCERIGGGTDEIMIYVAGRQILKDYQNK	soluble
MGHHHHHHSHMAQKPGTMAQMRNGTSGGDKRQYETEVIILNQCRKLNGQIFIQRDYSKGLDVQFEAEYPARLTEKVPRDVWENTIVRINRIFADAEAITPQTIFETVLGCFTCYASYAITKSTYRRKLDELQEFLNRENREIYHHVGFHIRNPMERGLRVLEISLLSRQGETPRDDVDSPGGAIRTI	not soluble
MHHHHHHSSGVDLGTENLYFQSNAMLDPLDILTNIDDVLPYYQAIFSAEEQKVVGYEVLGRILADSEIQSLGPFFLDAGIPEEYKLEVDNRIIRQALDRFLEADSDLLIFMNQDANLLMLDHGESFLELLKEYEAKGIELHRFVLEITEHNFEGDIEQLYHMLAYYRTYGIKIAVDNIGKESSNLDRIALLSPDLLKIDLQALKVSQPSPSYEHVLYSISLLARKIGAALLYEDIEANFQLQYAWRNGGRYFQGYYLVSPSETFLERDVLKQRLKTEFHQFITHEKKKLETVYEHSEQFYKRVHQAVTSLRKNNLSSDDDFIKKLAEELTDCSFRIYMCDEEGDQLTGNVFKQDGEWIYQPEYAEKNWSWRPYFLENIMRMRNLRKGFFSDLYSDLETGEMIRTFSYPMDDQMYLFIDLPYSYLYEQDGLI	soluble
MGSDKIHHHHHHKDEDPVLPLEGAKLSVAVKASGTATKAYNPNDVNELEGEAYINNLAVVVFNETGTELLGYKWEALSGAEHSAIIADVPTTKAVRARIIVLANVPRDLLSTVSTYDEFQTRLVDLSSQSQTNLTMSSQVIVTKSALSEEDNYLGYTDLGDQNVDGISDPILLTRVAARIDLVNISTRFAGTPFAGREVRIDAVGIYNMKTKSYYFSEADWGETEAPDAVRNSEDTSFEDLLVNDGTSISNTPFVHYVMENMKSDDHTMIAVKATLRGNSSYQDHTKIFTAVINAGGLQNGYDHNFIRRNYVYRLRIYFDGESFDNIPVTPDPGPGPDPEPEVDTNLNIAVQVVGWGPVMQHPVID	not soluble
MGSDKIHHHHHHMKRVISLIDMDCFYAQVEQRDNPSLWGQPVIVVQHSRQGIEGGILAVSYEARPFGVKRGMTVAEAKLKCPQISICHVPIGEYVDKADIQKYRDASAEVFRVLNNYDSQIIIEKASVDEAFLDLSAYTNQKLQELRENEGLEEFLQAAITYLPTTHLATGEDVKENEHLREDVLLEYIENARNCTENLLLLIAAVTVEQIRQQIHEETQFFCSAGVGNNKMMAKLVCARHKPRQQTLIPWFYVREILRLTPIGDVRGFGGKMGNRIQEMLNITVRKRKYSKFQVIFRIFIEKLSEMSEICNFRRFYTIFKYFSLNLEIWKYSKKNQFFLAKKKEILRFSQLKIRKFEFPVTFYPRNPLMGELLEVDISQLIE	not soluble
MCVHTRKPDGLHPKPVSHCPVIDTGQSEWRSFTFTTICMGFRPRQAYRQPSPIANETENTMSNSNIQQEAQDIHDQLPESVDASPEDIEERLTTLVDDYRVPLDEAQRSVVSTYLSDSDVDRDDVSSENENQQVDLEEITEAEQWVDITAKVADLWEPRSDSIAQVGLLGDETGTIKFTKWAKSDLEALTEGQVYRLGNVVTDEYQGQYSVKLNRTTTIEALDQDIEVGDDTTDAEGALVDIQSGSGLIKRCPEDDCTRVLQNGRCSEHGEGEGEFDLRIKGVIDNGDTVQEVIFDKEATEQVADITLAQAQEMAMDALDTSVVADEIREVTLGRYYRVQGPELGRYLLVNEFEQLAEMHDPEQLLITARSI	soluble
MPSQITRSSHSSLPEVAPASGDAAGVSEQTPQQARTVAFFASGELAVAFGRTSTAPAQDSVRLLSALQRELDKQQPSWPTVAQLCHSLAEVAKTEQGWHQLASEDQAPAPALKDLLERCIGRLADMPASHASHDSLSLACEGLRTARLHQSVARLTARPPALARAIPDLLALTHLDPETLGAEPPVVSSYTLFSHFVHTAKQRTAELNDSLQRQPEAVVSLLRSHADTLNDLETLPGALQALTENCQDAPACNELRELAEVVGALLQLLREHGILPRLEAISIEPGEAPAPGHEAAEPRLTRSQALLKAGGNLVRKFDAYGALAPMDDKGLLALMRTPAPHLSPDQMHAFLNKHVLHLTQEQRDIVSNTPLPFAPEGDIEARCGMGFDEKLRLALANGSLVLSEEQLARLGHLPSAATTTSDVVKTLLEKPSSALSEAERDMLGAIVQANGQGQLDAWRAHNEQLPAVLSRSGLPSDVKDELLSLNQSMNAELGTLKNGASFKSRILASPAMLLALAPLPLAVAFVSKDNSYSSSLVAHFTKNAVFMAGLMMNELTNARTNVDHGLNRYFVTVLANAIVAQPTFARNEHLLEQVGFGIATAVASGAATLGVFNRESIVAAFKLAKSKLSRQDTGNASIPEEDHLAVVRHFDVSEHFAQQMKVATELYKQDKSITDIMNSSLTYLGTKSSEFQARFESVDALRAGLQLAEGERKADPDFYTKLGLVALTASIGAALVMLMKSMVGKADYAADGVWCVSEMLKLAMNPEVDMQKAVQVFKEIVGLNLVMTGFLGVNKVWNFLDKGIKGYASGAAVLTAANLTLPGMVGEVAGAAAGKGLSYLTDKGKAAHQAGRAAASWAGNYVGTSRLGSAVGTLQTAIPGRIAGGQVVAGLYDRFRYLTGSHPTPAQQAAGEP	not soluble
GEERKCLQTHRVTVHGVPGPEPFTVFTINGGTKAKQLLQQILTNEQDIKPVTTDYFLMEEKYFISKEKNECRKQPFQRAIGPEEEIMQILSSWFPEEGYMGRIVLKTQQE	soluble
